Reference: patent US11149077B2, “Targeted therapeutics based on engineered proteins for tyrosine kinases receptors, including IGF-IR” (BRISTOL-MYERS SQUIBB COMPANY, priority 2006, dated 2021)

B1: 385A08-PEG20-385A08: two 385A08 (SEQ ID NO: 203) domains coupled via Cys97 to a linear 20 kDa bifunctional PEG (conjugate)
chain 1: GVSDVPRDLEVVAATPTSLLISWSARLKVARYYRITYGETGGNSPVQEFTVPKNVYTATISGLKPGVDYTITVYAVTRFRDYQPISINYRTEIDKPCQ
chain 2: B1 chain 1
modifications: 20 kDa bifunctional PEG via Cys97
B2: 338A06 (protein)
chain: VSDVPRDLEVVAATPTSLLISWSARLKVARYYRITYGETGGNSPVQEFTVPKNVYTATISGLKPGVDYTITVYAVTKMRDYRPISINYRT

Tests used:
[1] = tested on: human plasmacytoma cell line NCI-H929; test: NCI-H929 cell proliferation assay (serum mediated proliferation); assay type: cell-based; conditions: at all concentrations tested
Experimental: The human plasmacytoma cell line NCI-H929 (ATCC, Manassas, Va.) was plated in 96 well plates at a concentration of either 10000 or 25000 cells per well in DMEM (Invitrogen, Carlsbad, Calif.) containing 10% fetal bovine serum (Hyclone, Logan, Utah) containing various concentrations of IGF-IR antagonists. Cells were allowed to proliferate for 72 hours at 37° C., 5% CO2. After the proliferation period, cells were exposed to 20 μL of Cell Titer 96 Aqueous Proliferation Reagent (Promega, Madison, Wis.) and allowed to incubate for an additional four hours. Absorbance at 490 nm was measured on a Spectramax Plus 384 (Molecular Devices, Sunnyvale, Calif.), and the resulting data were analyzed using SigmaPlot (Systat Software, Point Richmond, Calif.).

[2] = tested on: RH41 sarcoma xenografts; test: In vivo antitumor activity in RH41 sarcoma xenografts; conditions: 40 mg/kg, TIWx3, 20 ip
Experimental: *Tumor growth inhibition and probability values calculated on day 39. ^aVehicle was 80% PEG400, 20% dH2O. ^bVehicle was PBS. ^cAverage weight change for each group is the mean difference between weight at the start of treatment (Day 20) and after the end of treatment (Day 42). TVDT was calculated for a size of 500 mg Abbreviations used are as follows: po, oral route; ip, intraperitoneal route; LCK, gross log cell kill calculated as LCK=T−C/(3.32×TVDT) where T-C is the difference in time in days for the treated tumors (T) to reach a predetermined size (tumor target size) relative to the vehicle control group (C) divided by the tumor volume doubling time (TVDT) multiplied by 3.32.
Tumors were propagated in nude mice. Tumor passages occurred every four weeks for human RH41 xenografts. With regard to efficacy testing human tumor xenografts were implanted in nude mice. All tumor passages were subcutaneous (sc).
Antitumor activity was evaluated in terms of: a) cures, and for the murine tumor models, increases in lifespan reflected by the relative median survival time (MST) of treated (T) versus control (C) groups (i.e. % T/C values); and b) primary tumor growth inhibition determined by calculating the relative median times for T and C mice to grow tumors of a predetermined “target” size (1 gm for all sc tumor models described) and expressed as T-C values, in days. The definition of a cured mouse was one whose tumor was undetectable, or <35 mg, when assessed more than 10 tumor volume doubling times (TVDTs) post-treatment. The activity criterion for tumor inhibition/reduction was a statistically significant delay in primary tumor growth consistent with 1 gross log cell kill (LCK). The following formula was employed to calculate LCK: LCK=T−C/(3.32×TVDT)
Where, TVDT=median time (days) for control tumors to reach target size—median time (days) for control tumors to reach half the target size. […] The maximum tolerated dose (MTD) is defined as the dose level immediately […] which excessive toxicity (i.e. more than one death) occurred. […] Statistical evaluations of data were performed using Gehan's generalized Wilcoxon test (Gehan, Biometrika 52:203-223, 1965). Western Blot Analysis of 385A08-Fc

[3] = target: T1, human IGF-IR (Homo sapiens, UniProt P08069); test: Surface plasmon resonance (BIAcore) binding kinetics and affinity on immobilized IGF-IR
T1 construct: The extracellular domain of human IGF-IR (aa 1-932) was cloned into a mammalian expression vector; made in house
Experimental: The binding kinetics of fibronectin-based scaffold proteins binding proteins to the target was measured using BIAcore 2000 or 3000 biosensors (Pharmacia Biosensor). A capture assay was developed utilizing an IGF-IR-Fc fusion. A similar reagent had been described by Forbes et al. (Forbes et al. 2002, European J. Biochemistry, 269, 961-968). The extracellular domain of human IGF-IR (aa 1-932) was cloned into a mammalian expression vector containing the hinge and constant regions of human IgG1. Transient transfection of the plasmid produced a fusion protein, IGF-IR-Fc which was subsequently purified by Protein A chromatography and captured on Protein A immobilized on Biasensor CM5 chips by amine coupling. The kinetic analysis involved the capture of IGF-IR-Fc on Protein A followed by injection of the fibronectin-based scaffold protein in solution and regeneration of the Protein A surface by glycine pH 2.0. Sensorgrams were obtained at each concentration and were evaluated using a program Biaevaluation, BIA Evaluation 2.0 (BIAcore), to determine the rate constants ka (kon) and kd (koff) The dissociation constant, KD was calculated from the ratio of rate constants koff/kon. Typically, a concentration series (2 uM to 0 uM) of purified fibronectin-based scaffold protein was evaluated for binding to protein A captured human IGF-IR-Fc fusion protein.

[4] = Size-exclusion chromatography (solution properties, monomericity); assay type: physicochemical
Experimental: Size-exclusion chromatography (SEC) was performed using a TSKgel Super SW2000 column (TOSOH Biosciences, LLC), 4.6 mm×30 cm, on an Agilent 1100 HPLC system with UV detection at A214 nm and A280 nm and with fluorescence detection (excitation=280 nm, emission=350 nm). A buffer of 100 mM sodium sulfate, 100 mM sodium phosphate, 150 mM sodium chloride, pH 6.8 at a flow rate of 100 μL/min was employed. Samples (0.1 to 1 μg each) at a concentration of approximately 100 μg/mL were injected separately. Gel filtration standards (Bio-Rad Laboratories, Hercules, Calif.) were used for molecular weight calibration.

[5] = target: T2, human insulin receptor (Homo sapiens, UniProt P06213); test: BIAcore binding to immobilized human insulin receptor; conditions: percentage of signal for insulin binding at similar concentration
T2 construct: purchased R&D Systems (Minneapolis, Minn.)
Experimental: One liter E. coli growths of selected optimized clones were prepared and the proteins were purified.
In brief, 60 ug/mL of IR diluted in acetate 4.5 was coupled/immobilized to a level of 8300 RU and 11.9 ug/mL of VEGF-R2-Fc diluted in acetate 5.0 was immobilized to a level of 9700 RU on flow cells 2 and 3. A blank reference surface was prepared on FC1. […] Fibronectin-based scaffold proteins were diluted to 10 uM in HBS-EP (10 mM Hepes 150 mM NaCl 3 mM EDTA 0.05% Surfactant P20) and injected at 20 uL/min for 3 minutes over the flow cells at 25 C and dissociation was observed over 10 mins.

[6] = Differential scanning calorimetry (thermal stability, Tm); assay type: physicochemical; conditions: DSC (FIG. 8)
Experimental: Differential Scanning calorimetry (DSC) analysis of midscaled clones was performed to determine thermal stability. A 1 mg/ml solution of appropriate clone was scanned in a N-DSC II calorimeter (calorimetry Sciences Corp) by ramping the temperature from 5° C. to 95° C. at a rate of 1 degree per minute under 3 atm pressure. The data was analyzed vs. a control run of the appropriate buffer using a best fit using Orgin Software (OrginLab Corp).

[7] = tested on: human pancreatic adenocarcinoma cell line BxPC-3; test: Cell mitogenesis assay: IGF-I-mediated proliferation, 3H-thymidine; assay type: cell-based; conditions: IGF-I-dependent proliferation, BxPC-3, 24 hour IGF-I exposure
Experimental: The purified, optimized IGF-IR clones were evaluated in cell-based assays in order to confirm activity.
The human pancreatic adenocarcinoma cell line BxPC-3 (ATCC, Manassas, Va.) was plated in 96 well plates at a concentration of 2500 cells per well in RPMI 1640 (Invitrogen, Carlsbad, Calif.) containing 10% fetal bovine serum (Hyclone, Logan, Utah). The following day, cells were washed in starvation medium consisting of RPMI 1640 containing 0.1% BSA (Sigma, St. Louis, Mo.). Washed cells were pre-incubated for four hours in starvation medium containing various concentrations of each IGF-IR antagonist. […] For the final four hours of incubation, cells were exposed to [^3H]-Thymidine (0.25 μCi/well; Perkin Elmer, Wellesley, Mass.). After the incubation period, cells were washed in PBS, lysed in 100 μL buffer consisting of 0.1% SDS+0.5 N NaOH, and counted on a TopCount NXT Scintillation Counter (Perkin Elmer, Wellesley, Mass.). The data were analyzed using SigmaPlot (Systat Software, Point Richmond, Calif.).

[8] = Table 4, optimized 218C04 clones

Molecule	inhibition of cell growth [1]	Outcome by (% TGI) [2]	% TGI ([2]; calculated on day 39) [%]	LCK ([2]; gross log cell kill)	faster on-rate (ka) relative to unmodified 385A08 [3]	off-rate (kd) relative to unmodified 385A08 [3]	ka ([3]; Table 10, PEGylated variants)	kd ([3]; Table 10, PEGylated variants)	solution behaviour by SEC (monomer / aggregation) [4]	% IR Binding at 10 μM ([5]; Table 5) [%]	% IR Binding at 10 μM ([5]; Table 8) [%]	unfolding temperature (Tm) [6] [°C]	Kd [3, 8] [nM]	ka [3, 8]	kd [3, 8]	IC50 [7] [nM]
B1	approximately 100%	A (A % TGI value of >50% was considered active)	66	0.6	approximately two-fold	slightly decreased	15 1/M*s × 10^+6	0.9 1/s × 10^−4	–	–	–	–	–	–	–	–
B2	–	–	–	–	–	–	–	–	monomeric behavior	2	0	62	0.069	2.2 1/M*s × 10^+6	4.3 1/s × 10^−4	10 to 20
